According to patent US20210179684A1:

Columns and labels:
[1] = target: TrkA receptor on cells (NIH-TrkA); experiment: flow cytometry on NIH-TrkA cells; 20 nM Biotin-NT3, fluorescent avidin; no competitor
[2] = target: TrkC receptor on cells (NIH-TrkC); experiment: flow cytometry on NIH-TrkC cells; 20 nM Biotin-NT3, fluorescent avidin; no competitor
[3] = target: p75 neurotrophin receptor on cells (NIH-p75); experiment: flow cytometry on NIH-p75 cells; 20 nM Biotin-NT3, fluorescent avidin; no competitor
[4] = target: p75 neurotrophin receptor on cells (NIH-p75); experiment: competition flow cytometry on NIH-p75 cells; 20 nM Biotin-NT3 tracer, cold competitor at 200 nM; value is the tracer binding left
[5] = target: TrkA receptor on cells (NIH-TrkA); experiment: competition flow cytometry on NIH-TrkA cells; 20 nM Biotin-NT3 tracer, cold competitor in 3-fold excess; value is the tracer signal left
[6] = target: TrkC receptor on cells (NIH-TrkC); experiment: competition flow cytometry on NIH-TrkC cells; 20 nM Biotin-NT3 tracer, cold competitor at 200 nM; value is the tracer binding left
[7] = target: p75 neurotrophin receptor on cells (NIH-p75); experiment: competition flow cytometry on NIH-p75 cells; 20 nM Biotin-NT3 tracer, cold competitor at 200 nM; value is the tracer signal left
[8] = target: TrkC receptor on cells (NIH-TrkC); experiment: cell-based or functional assay
[9] = target: TrkC receptor on cells (NIH-TrkC); experiment: competition flow cytometry on NIH-TrkC cells; 20 nM Biotin-NT3 tracer, cold competitor at 200 nM; value is the tracer signal left
[10] = target: TrkA receptor on cells (NIH-TrkA); experiment: competition flow cytometry on NIH-TrkA cells; 20 nM Biotin-NT3 tracer, cold competitor in 3-fold excess; value is the tracer binding left

Substance	MCF (mean channel fluorescence) [1]	MCF (mean channel fluorescence) [2]	MCF (mean channel fluorescence) [3]	% of maximal binding to p75 [4]	MCF (mean channel fluorescence) [5]	% of maximal binding to TrkC [6]	MCF (mean channel fluorescence) [7]	% survival at 0.1 nM in culture [8]	MCF (mean channel fluorescence) [9]	% of maximal binding to TrkA [10]
Biotin-NT-3 (wild type NT-3 covalently linked to biotin, tracer) (from UniProt P18280 140-258) (ligand)	38	93	76							
NT-3 mutant (SEQ ID NO: 23), D15A/R114A/K115A (from UniProt P18280 140-258) (ligand)				89%	16	13%	69			
Wild type NT-3 (neurotrophin 3, mature form), unlabeled (from UniProt P18280 140-258) (ligand)					20	18%		34%	25	36%
